We go through five molecules from article PMC8804921.

One data set deals with HSFA1a-MBP (UniProt P41151 1-495). Kind of data set: EMSA.
Data set [1] has as its target T1, BES1 (BES1-GST / GST-BES1);HSFA1a-MBP (Arabidopsis thaliana?;Arabidopsis …, UniProt Q9LN63;P41151 1-335;1-495, |). Kind of data set: EMSA. (In general: In EMSA bound probe runs differently from free probe, usually more slowly.)
Data set [2] deals with BES1 (BES1-GST / GST-BES1) (UniProt Q9LN63 1-335). Kind of data set: EMSA.
Data set [3] has as its target T1, BES1 (BES1-GST / GST-BES1);HSFA1a-MBP. Briefly: competition.

T1 sequence (Q9LN63 whole entry, chain 1 of 2): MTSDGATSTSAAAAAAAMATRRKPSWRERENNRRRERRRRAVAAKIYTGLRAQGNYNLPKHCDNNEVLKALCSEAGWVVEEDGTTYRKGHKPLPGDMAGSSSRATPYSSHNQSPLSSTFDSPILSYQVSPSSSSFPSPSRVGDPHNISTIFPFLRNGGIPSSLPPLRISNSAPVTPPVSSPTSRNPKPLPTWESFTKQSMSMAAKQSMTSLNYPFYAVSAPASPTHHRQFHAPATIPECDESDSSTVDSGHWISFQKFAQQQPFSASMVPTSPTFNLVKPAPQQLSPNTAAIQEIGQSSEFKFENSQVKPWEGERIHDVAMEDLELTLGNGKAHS
T1 sequence (P41151 whole entry, chain 2 of 2): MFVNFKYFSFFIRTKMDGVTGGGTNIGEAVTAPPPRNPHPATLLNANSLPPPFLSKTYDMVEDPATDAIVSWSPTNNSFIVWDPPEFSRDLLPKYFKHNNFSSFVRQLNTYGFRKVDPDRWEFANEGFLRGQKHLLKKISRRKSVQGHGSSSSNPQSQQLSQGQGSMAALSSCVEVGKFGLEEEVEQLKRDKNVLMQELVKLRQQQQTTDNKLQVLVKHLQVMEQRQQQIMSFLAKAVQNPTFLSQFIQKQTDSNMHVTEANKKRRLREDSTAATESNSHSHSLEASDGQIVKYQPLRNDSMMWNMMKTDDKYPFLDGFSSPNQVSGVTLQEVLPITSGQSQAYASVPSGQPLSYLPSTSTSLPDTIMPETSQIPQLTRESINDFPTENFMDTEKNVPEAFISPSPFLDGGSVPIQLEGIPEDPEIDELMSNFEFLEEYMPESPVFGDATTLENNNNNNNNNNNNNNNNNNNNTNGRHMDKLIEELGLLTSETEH
BES1 (BES1-GST / GST-BES1), sequence (Q9LN63 whole entry): as the sequence (Q9LN63 whole entry, chain 1 of 2) above
HSFA1a-MBP, sequence (P41151 whole entry): as the sequence (P41151 whole entry, chain 2 of 2) above

B1: pHSP90.1 EMSA HSE (C1 +HSE) (dsDNA)
DNA 1: GAGTCTCGAAACGAAAAGAACTTTCTGGAATTCGTTTGCTCACAAAG
DNA 2: CTTTGTGAGCAAACGAATTCCAGAAAGTTCTTTTCGTTTCGAGACTC
As for B1, the binding result (with HSFA1a-MBP; in data set [1]) was “binds” in each case.

B2: pHSP70.3 EMSA BRRE (C1 +BRRE) (dsDNA)
DNA 1: ATCCAACTCCAAAAGATCGTGCGGTTACATAGCGAGCCAT
DNA 2: ATGGCTCGCTATGTAACCGCACGATCTTTTGGAGTTGGAT
For B2, in data set [2], the binding result is “binds”.

B3: pHSP90.1 EMSA BRRE (C1 +BRRE) (dsDNA)
DNA 1: TCCATCAGCTACAAAGTCGTGTGCGATTTTGAGTCGTTGT
DNA 2: ACAACGACTCAAAATCGCACACGACTTTGTAGCTGATGGA
On to B3, for which, in data set [2], the binding result is on record as “binds”.

B4: pHSP70.3 EMSA HSE (C1 +HSE) (dsDNA)
DNA 1: TTACATAGCGAGCCATCGAACCTTCTCGAAACTCGAGTACAAGACTC
DNA 2: GAGTCTTGTACTCGAGTTTCGAGAAGGTTCGATGGCTCGCTATGTAA
Turning to B4, the binding result (with HSFA1a-MBP; in data set [1]) was “binds” throughout.

B5: pHSP70.3 EMSA HSEmut (C2 -HSE) (dsDNA)
DNA 1: TTACATAGCGAGCCATCTAACCTTATCTAAACTCGAGTACAAGACTC
DNA 2: GAGTCTTGTACTCGAGTTTAGATAAGGTTAGATGGCTCGCTATGTAA
As to B5, the binding result in data set [3] is recorded as “no binding”.
